Here are results for six molecules from patent US20230322924A1 (Janssen / Centocor, published 2023).

Assay [1] has as its target T1, Cyno CD33 full length, expressed on HEK293F cells (cynomolgus monkey).
T1 construct: HEK293F cells transduced with lentivirus containing full length cyno CD33 (Genbank XP_005590138.1); also called cyCD33
In words: flow cytometry, HEK293F cells expressing cyno CD33. Here is the method: (§1) OMNIRat antibodies identified via immunization, v-region cloned and subsequently expressed and purified were characterized further for binding to CD33 expressing cells and binding to recombinant antigens. The purified antibodies were assessed for binding to stably transfected HEK293F cells expressing human CD33 or cyno CD33 (generation described above) along with the parental HEK293F as negative control. Cells were harvested from tissue culture flasks using non-enzymatic dissociation buffer (Thermo Scientific). The flasks were rinsed twice with PBS and dissociation buffer was added to the flask, and the flask was incubated for 10 minutes at 37° C. until the cells became non-adherent. The cells were centrifuged at 300 g for 5 minutes and resuspended at 1.0×10⁶ cells/ml in staining buffer (Becton Dickinson; Franklin Lakes, NJ). 50,000 cells/well of each cell type was plated in 50 μl of staining buffer in round bottom plates (Becton Dickinson). […] 100 μl staining buffer was added to all wells of each plate, the plates were spun at 300 g for 5 min, the buffer was removed, 200 μl staining buffer was added to all wells of each plate, the plates were spun at 300 g for 5 min, and the buffer was removed. 50 μl of 2 μg/ml of Goat-anti-human Fc AF647 secondary antibody (Jackson Immunoresearch; West Grove, PA) was added to all wells of the plates, and the plates were incubated for 30 min at 4° C. 100 μl staining buffer was added to all wells of the plates, the plates were spun at 300 g for 5 min, and the buffer was removed. 200 μl running buffer (running buffer is Staining buffer, 1 mM EDTA, 0.1% Pluronic Acid) was added to all wells of the plates, the plates were spun at 300 g for 5 min, and the buffer was removed. 30 μl running buffer containing Sytox Green live/dead dye (ThermoFisher) was added to all wells with cells and the plates were read on an iQue IntelliCyt flow cytometer. Cells were gated on forward vs. side scatter to eliminate debris, then on singlets and then on live cells which excluded the Sytox stain. Antibody binding was assessed by the mean fluorescence intensity in the AF647 channel.
(In general: Flow cytometry measures light scatter and fluorescence of single cells or particles in a stream.)

Assay [2] deals with T2, Human CD33 full length, expressed on HEK293F cells (human, UniProt P20138 18-364).
T2 construct: HEK293F cells transduced with lentivirus containing full length human CD33; also called huCD33
In words: flow cytometry, HEK293F cells expressing human CD33. Here is the method: as §1

The target of assay [3] is T3, Cyno CD33 ECD-HSA (cynomolgus monkey).
T3 construct: Cyno CD33 extracellular domain fused to monomeric human serum albumin and a six-histidine tag; also called C33W1
In words: ProteOn SPR, mAb captured by anti-human Fc, 1:1 Langmuir fit. As to the method: The panel of mAbs was then further characterized for full affinity analysis as well as epitope binning. The binding of anti-CD33 mAbs to recombinant human CD33 ECD-HSA (C33W2) and cyno CD33 ECD-HSA (C33W1) was measured by ProteOn SPR (Bio-Rad). […] Different mAbs were captured on the anti-human Fc IgG surface at 0.25 or 0.5 μg/ml (160-300 RU) in vertical ligand orientation, with the 6th ligand channel as no ligand surface control. Human and cyno CD33-HSA proteins at 0.3 μM concentration in 3-fold dilution series of 5 concentrations flew in as analyte to bind to captured mAbs in the horizontal orientation. A buffer sample was also injected in the 6th channel to monitor the dissociation of captured mAb and baseline stability. […] The raw biding data were processed by double referencing after subtracting the response data from: 1) the inter-spot to correct for the non-specific interactions between the Ag and the empty chip surface; 2) the buffer channel to correct for baseline drifting due to the dissociation of captured mAb surface over time. The processed data at all antigen concentrations for each mAb were globally fit to a 1:1 simple Langmuir binding model to extract estimates of the kinetic (kₒₙ, koff) and affinity (Kd) constants.

For assay [4], the target named is Human CD33 ECD-HSA (human). In words: SPRi off-rate screen (IBIS MX96), mAb captured by anti-human Fc; column head prints KD. As to the method: (§2) To begin assessing the biophysical binding properties of the purified mAbs an off-rate screen was performed. 76 OMNIRat anti-CD33 mAbs were tested for binding to recombinant human CD33 ECD-HSA (C33W2) and cyno CD33 ECD-HSA (C33W1) proteins (Janssen production) and the off-rate was measured by IBIS MX96 SPRi array platform (Carterra; Newton, PA). […] The sensor chip was transferred to the Continuous Flow Microspotter (CFM) unit to capture each anti-CD33 mAb at 10 μg/ml for 10 minutes. Binding was measured on IBIS SPRi by single cycle kinetics without regeneration. […] The raw binding data (.trix file format) were referenced and aligned using SprintX software (Wasatch, Ver 1.9.3.2), then exported (.ibmx file format) to Scrubber software (Ver. 2.0) for 1:1 binding kinetic analyses (Wasatch, version 2.0.0.33) to extract the koff results.

Assay [5] has as its target T3, Cyno CD33 ECD-HSA. Description: SPRi off-rate screen (IBIS MX96), mAb captured by anti-human Fc; column head prints Cyno CD33 binding KD. Here is the method: as §2
Assay [6] has as its target T4, Cyno CD33 full length (cynomolgus monkey).
T4 construct: also called cyCD33
In words: flow cytometry on HEK293F cells expressing cyno CD33. Here is the method: as §1, with “The” for “OMNIRat antibodies identified via immunization, v-region cloned and subsequently expressed and purified were characterized further for binding to CD33 expressing cells and binding to recombinant antigens. The”
(§3) The OmniMouse panel (8 mAbs total) was generated separately and characterized further for binding to cells.

The target of assay [7] is T5, Human CD33 full length (human, UniProt P20138 18-364).
T5 construct: also called huCD33
In words: flow cytometry on HEK293F cells expressing human CD33. As to the method:
as §1, with “The” for “OMNIRat antibodies identified via immunization, v-region cloned and subsequently expressed and purified were characterized further for binding to CD33 expressing cells and binding to recombinant antigens. The”
as §3

Where a chain is given by its changes, count along the chain named. In names and notes the source's numbering stands.

T5 sequence (P20138 18-364 limits assumed): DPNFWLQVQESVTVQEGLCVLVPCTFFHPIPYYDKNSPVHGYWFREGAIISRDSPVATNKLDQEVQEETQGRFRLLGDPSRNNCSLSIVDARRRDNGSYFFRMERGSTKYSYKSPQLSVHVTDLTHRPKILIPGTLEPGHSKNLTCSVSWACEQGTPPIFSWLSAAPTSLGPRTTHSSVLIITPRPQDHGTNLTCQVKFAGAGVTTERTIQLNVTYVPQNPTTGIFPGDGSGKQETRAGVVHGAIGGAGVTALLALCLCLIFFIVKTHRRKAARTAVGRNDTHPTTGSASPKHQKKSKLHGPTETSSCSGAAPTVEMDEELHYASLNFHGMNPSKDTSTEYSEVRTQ
T2 sequence (P20138 18-364 limits assumed): as above
Human CD33 ECD-HSA (human), sequence (chain, as listed by the source): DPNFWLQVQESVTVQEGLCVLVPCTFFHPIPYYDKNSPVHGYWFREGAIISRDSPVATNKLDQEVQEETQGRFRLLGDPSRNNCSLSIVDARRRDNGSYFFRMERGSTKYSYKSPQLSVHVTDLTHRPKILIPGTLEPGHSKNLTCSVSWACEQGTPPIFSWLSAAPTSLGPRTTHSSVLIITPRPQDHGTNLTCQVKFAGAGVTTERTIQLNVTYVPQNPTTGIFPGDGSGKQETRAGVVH

B1: C33B107 (antibody, IgG1, V domains shown)
VH: EVQLLESGGGLVQPGGSLGLSCAASGFTFSGYAMSWVRQAPGKGLNWVSAIDYSGNDTYYADSVKGRFTISRDNSKNTLYLQMNSLRAEDTAVYYCAKESQLLHGLFEHWGQGILVTVSS
VL: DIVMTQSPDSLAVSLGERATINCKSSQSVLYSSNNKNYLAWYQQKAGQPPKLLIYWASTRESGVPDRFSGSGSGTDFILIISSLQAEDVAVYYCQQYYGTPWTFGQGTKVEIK
notes: huIgG1 F405L; also called C33F112; C33H68/C33L17
What is called Kd is a measure of binding affinity in units of concentration. As a reminder, the koff is a measure of how fast the partners let go of each other. By kon is commonly meant the second-order rate constant of association. B1: in assay [1], the “MFI at 0 nM mAb (background)” value was determined as 55.1 MFI, the “MFI at 0.6 nM mAb” value amounted to 36800 MFI, the “MFI at 6 nM mAb” value was determined as 47800 MFI and the “MFI at 60 nM mAb” value came out at 50300 MFI. Moreover, in assay [2], the “MFI at 0 nM mAb (background)” value is 86.5 MFI, the “MFI at 0.6 nM mAb” value was 161000 MFI, the “MFI at 6 nM mAb” value is 340000 MFI and the “MFI at 60 nM mAb” value amounted to 375000 MFI. Moreover, in assay [3], binding was characterised by a dissociation constant (Kd) of 0.212 nM, the off-rate (koff) worked out at 7.01e-05 s⁻¹ and the on-rate (kon) came to 331000 M⁻¹ s⁻¹. The same molecule had a koff in assay [4] of 0.00444 s⁻¹. This molecule displayed an off-rate (koff) in assay [5] of 0.000135 s⁻¹.

B2: C33B88 (antibody, IgG1, V domains shown)
VH: QVQLVQSGSELKKPGASVKVSCKASGYTLTRSAMNWVRQAPGQGLEWMGWINTNTGNPTYAQGFTGRFVFSLDTSVNTAYLLISSLKTEDTAVYYCASDILPGYHEDYWGQGTLVTVSS
VL: QSALTQPASVSGSPGQSITISCTGINSDVGSYDLVSWYQQHPGKAPKLLIYDGSERPSGVFGRFSGSKSDNTTSLTISGLQAEDEAAYYCCSYEVTTTYVVFGGGTKLTVL
notes: huIgG1 F405L; also called C33F93; C33H88/C33L61
For B2, in assay [1], the “MFI at 0 nM mAb (background)” value worked out at 90.1 MFI, the “MFI at 0.6 nM mAb” value came to 43900 MFI, the “MFI at 6 nM mAb” value stood at 43900 MFI and the “MFI at 60 nM mAb” value was determined as 50400 MFI. Also, in assay [2], the “MFI at 0 nM mAb (background)” value stood at 94.8 MFI, the “MFI at 0.6 nM mAb” value worked out at 274000 MFI, the “MFI at 6 nM mAb” value was 481000 MFI and the “MFI at 60 nM mAb” value came out at 393000 MFI. Further, the dissociation rate constant (koff) in assay [4] came out at 0.000825 s⁻¹. The same molecule gave a koff in assay [5] of 0.000389 s⁻¹.

B3: C33B909 (antibody, V domains shown)
VH: EVQLVESGGGLVQPGRSLRLSCVASGFTFDDYAIHWVRQAPGKGLEWVSGLSWNGGNIGYADSVKGRFTISRDNAKNSLYLQMNSLKTEDTAFYYCTKDTPYGDYFDYWGQGTLVTVSS
VL: DIQMTQSPSSVWASVGDRVTITCRASQGISSWLAWYQQQPGKAPNLLIYRSSSLQSGVPSRFSGSGSGTDFTLTISSLQPEDFATYYCQQDNSFPYTFGQGTKLEIK
notes: OMNIMouse-derived anti-CD33 mAb; same V regions as C33B901; The OMNIMouse mAbs were cloned into both IgG1 and IgG4 PAA; also called C33H249/C33L115
For B3, in assay [6], the “MFI at 0 nM (background)” value stood at 124 MFI, the “MFI at 0.6 nM” value turned out to be 116 MFI, the “MFI at 6 nM” value came to 135 MFI and the “MFI at 60 nM” value came out at 180 MFI. Further, in assay [7], the “MFI at 0 nM (background)” value was determined as 191 MFI, the “MFI at 0.6 nM” value was found to be 154 MFI, the “MFI at 6 nM” value came out at 170 MFI and the “MFI at 60 nM” value came to 176 MFI.

B4: C33B910 (antibody, V domains shown)
VH: B3 VH with V23A, A24G, M83L, T97A, T100S
VL: B3 VL with V11E, Q39K, N45K, R50G, S51A, L54W
notes: OMNIMouse-derived anti-CD33 mAb; same V regions as C33B902; also called C33H250/C33L116
For B4, in assay [6], the “MFI at 0 nM (background)” value turned out to be 176 MFI, the “MFI at 0.6 nM” value turned out to be 117 MFI, the “MFI at 6 nM” value worked out at 135 MFI and the “MFI at 60 nM” value was 202 MFI. In addition, in assay [7], the “MFI at 0 nM (background)” value is 155 MFI, the “MFI at 0.6 nM” value is 151 MFI, the “MFI at 6 nM” value came out at 183 MFI and the “MFI at 60 nM” value worked out at 214 MFI.

B5: C33B54 (antibody, IgG1, V domains shown)
VH: QVQLQQSGPGLVKPSQTLSLTCAISGDSVSSNSAAWNWIRQSPSRGLEWLGRTYYRSKWYNDYAVSVRSRITINPDTSKNQFSLQLNSVTPEDTAVYHCARETMFRGLMDYWGQGTLVTVSS
VL: SYVLTQPPSVSVAPGQTARITCGGSNIGSKSVHWYQQKPGQAPVMVVYDDSDRPSGIPERFSGSNSGNTATLTISRVEAGDEADYYCQVWDSSSDVVFGGGTKLTVL
notes: huIgG1 F405L; also called C33F59; C33H44/C33L10
For B5, in assay [1], the “MFI at 0 nM mAb (background)” value came to 28800 MFI, the “MFI at 0.6 nM mAb” value was 38100 MFI, the “MFI at 6 nM mAb” value came to 43000 MFI and the “MFI at 60 nM mAb” value was found to be 50500 MFI. In assay [2], the “MFI at 0 nM mAb (background)” value stood at 61.3 MFI, the “MFI at 0.6 nM mAb” value was 3770 MFI, the “MFI at 6 nM mAb” value came out at 27500 MFI and the “MFI at 60 nM mAb” value came to 148000 MFI. In assay [3], this molecule displayed a Kd of 0.484 nM, a koff of 0.000637 s⁻¹ and a kon of 1.32e+06 M⁻¹ s⁻¹. For the same molecule, in assay [4], the off-rate constant (koff) came out at 0.0248 s⁻¹. In addition, the off-rate constant (koff) in assay [5] worked out at 0.000135 s⁻¹.

B6: C33B89 (antibody, IgG1, V domains shown)
VH: B5 VH with V65L, R68Q, H98Y, T103V, M104A, F105V, R106A, G107A, L108S, M109F
VL: SYVLTQPPSVSVAPGQTARITCGGNNIGSKSVHWSQQKPGQAPVLVVYDDSDRPSGIPERFSGSNSGNTATLTISRVEAGDEADYYCQVWDSNSDHVVFGGGTKLTVL
notes: huIgG1 F405L; also called C33F94; C33H90/C33L51
As to B6, in assay [1], the “MFI at 0 nM mAb (background)” value stood at 113 MFI, the “MFI at 0.6 nM mAb” value is 23300 MFI, the “MFI at 6 nM mAb” value worked out at 34200 MFI and the “MFI at 60 nM mAb” value stood at 47300 MFI. In assay [3], binding was put at a Kd of 0.76 nM, the koff worked out at 0.000201 s⁻¹ and the kon was found to be 265000 M⁻¹ s⁻¹. The same molecule returned a koff in assay [4] of 0.00811 s⁻¹. This molecule returned an off-rate constant (koff) in assay [5] of 4.65e-05 s⁻¹.
